Results taken from patent US5837843, “Modified protein C” (Oklahoma Medical Research Foundation, dated 1998).
Values belong to the molecule of their own block, whether it stands above or below them.

How the values were obtained:
[1] = biological target: factor Va
[2] = biological target: human activated protein C (APC), wild type (human, UniProt P04070, gamma carboxylglutamic acid (Gla) residues in the amino-terminal Gla domain (x in Sequence ID No. 2); Gla content 8.7±0.3 per mole for protein C); test: cell-based or functional assay

factor Va inactivation (three stage assay, residual factor Va activity in prothrombinase) (times more active than wild type APC) [1]: 5
Molecule: APC-PT Gla (activated chimeric protein C with the Gla domain and hydrophobic stack of prothrombin) (from UniProt P04070) (enzyme)

factor Va inactivation by APC with and without protein S [2]: 2 fold
B1: human protein S (other)
chain: ANSLLEETKQGNLERECIEELCNKEEAREVFENDPETDYFYPKYLVCLRSFQTGLFTAARQSTNAYPDLRSCVNAIPDQCSPLPCNEDGYMSCKDGKASFTCTCKPGWQGEKCEFDINECKDPSNINGGCSQICDNTPGSYHCSCKNGFVMLSNKKDCKDVDECSLKPSICGTAVCKNIPGDFECECPEGYRYNLKSKSCEDIDECSENMCAQLCVNYPGGYTCYCDGKKGFKLAQDQKSCEVVSVCLPLNLDTKYELLYLAEQFAGVVLYLKFRLPEISRFSAEFDFRTYDSEGVILYAESIDHSAWLLIALRGGKIEVQLKNEHTSKITTGGDVINNGLWNMVSVEELEHSISIKIAKEAVMDINKPGPLFKPENGLLETKVYFAGFPRKVESELIKPINPRLDGCIRSWNLMKQGASGIKEIIQEKQNKHCLVTVEKGSYYPGSGIAQFHIDYNNVSSAEGWHVNVTLNIRPSTGTGVMLALVSGNNTVPFAVSLVDSTSEKSQDILLSVENTVIYRIQALSLCSDQQSHLEFRVNRNNLELSTPLKIETISHEDLQRQLAVLDKAMKAKVATYLGGLPDVPFSATPVNAFYNGCMEVNINGVQLDLDEAISKHNDIRAHSCPSVWKKTKNS
